# Results taken from the supplement of paper PMC10567573.
# B1: HSP90AB1 (parent)
# chain: TLRQKAEADKNDKAVKDLVVLLFE
# B2: CIB1 (parent)
# chain: DLSRLVNCLTGEGEDTRLSASEMK
# Variants of: B1
# Test: protein stability index of a GFP-peptide fusion (GPS, HEK-293T) (PSI 1-6); higher = more stable
# Details: c terminus: a fixed tail appended
# 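Note: lentivirally expressed fusions sorted by FACS into six bins by GFP to DsRed ratio, PSI derived from sequencing read proportions per bin multiplied by bin number.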
row,Variant,protein stability index
1,A6I,3.35
2,E24G,2.26
3,A14E,3.64
4,A14R,2.62
5,V15L,2.81
6,V15T,3.11
7,V15Q,2.86
8,D17F,1.51
9,D17P,2.87
10,K5S,3.36
11,K5C,2.85
12,K5T,3.15
13,K5L,3.1
14,K5V,3.24
15,K5F,2.75
16,F23P,5.02
17,T1P,3.57
18,T1L,2.3
19,T1R,2.47

row,Variant,protein stability index
1,R3T,3.59
2,R3W,2.6
3,V20E,5.2
4,L22Q,4.84
5,E7N,2.72
6,L2Q,3.62
7,Q4D,3.32
8,A8F,2.89
9,A8N,3.35
10,D9Q,3.23
11,V19S,4.08
12,V19Q,4.23
13,V19E,5.04
14,K13D,2.63
15,K13C,2.84
16,K10N,2.98
17,K10H,2.69
18,K10S,3.56

# Variants of: B2
# Test: as above
# Details: c terminus: a fixed tail appended
row,Variant,protein stability index
1,A20N,2.75
2,A20T,1.89
3,A20D,2.92
4,A20G,3.69
5,A20E,4.11
6,A20H,2.98
7,A20P,3.15
8,A20C,2.31
9,A20Q,3.71
10,A20K,1.61
11,A20F,1.8
12,A20S,2.9
13,A20W,3.38
14,A20V,2.17
15,A20M,2.19
16,A20Y,2.15
17,L9F,3.35
18,L9Q,3.25
19,L9R,2.54
20,L9Y,3.32
21,L9I,3.04
22,L9M,4.05
23,L9N,4.24
24,L9A,1.75
25,L9P,2.87

row,Variant,protein stability index
1,L9V,4.17
2,L9D,3.23
3,L9E,3.09
4,L9S,2.62
5,L9H,3.78
6,L9T,3.02
7,G11I,3
8,G11M,2.84
9,G11F,3.35
10,G11C,3.16
11,G11S,3.55
12,G11T,2.6
13,G11L,2.88
14,G11E,3.98
15,G11W,2.34
16,G11Q,3.03
17,G11K,3.49
18,G11R,2.9
19,G11N,3.7
20,G11Y,2.67
21,G11H,3.81
22,S19C,1.89
23,S19H,3.01
24,S19N,4.35
25,S19P,3.61

row,Variant,protein stability index
1,S19A,3.2
2,S19F,4.13
3,S19T,2.01
4,S19Q,2.78
5,S19Y,2.29
6,S19G,3.56
7,S19E,3.61
8,S19I,2.62
9,S19D,3.17
10,S19W,2.26
11,S19M,2.57
12,S19R,2.6
13,G13A,3.62
14,G13W,2.4
15,G13R,2.89
16,G13P,3.03
17,G13Q,2.54
18,G13Y,3.02
19,G13C,2.94
20,G13I,3.55
21,G13N,2.71
22,G13M,2.76
23,G13E,3.07
24,G13L,2.53
25,G13S,3.97

row,Variant,protein stability index
1,G13K,3.45
2,G13H,3.31
3,G13T,3.16
4,G13V,2.65
5,D15T,2.12
6,D15G,3.83
7,D15A,3.61
8,D15K,3.1
9,D15E,3.52
10,D15N,1.77
11,D15H,3.49
12,D15Y,2.06
13,D15R,2.67
14,D15C,2.19
15,D15M,1.61
16,D15F,2.32
17,D15P,2.62
18,D15V,1.54
19,N7S,3.63
20,N7R,3.09
21,N7D,4.32
22,N7K,2.84
23,N7G,2.74
24,N7T,2.62
25,N7A,3.12

row,Variant,protein stability index
1,N7M,2.09
2,N7E,4
3,N7I,2.59
4,N7P,4.6
5,N7L,3.85
6,N7W,2.2
7,V6N,4.04
8,V6C,3.96
9,V6P,4.84
10,V6M,3.61
11,V6E,2.91
12,V6S,2.6
13,V6L,3.68
14,V6I,3.25
15,V6T,3.08
16,V6D,4.1
17,V6G,2.36
18,V6R,3.94
19,V6W,2.64
20,V6Q,2.64
21,M23C,2.85
22,M23I,3.03
23,M23N,3.46
24,M23L,3.23
25,M23A,3.76

row,Variant,protein stability index
1,M23V,3.17
2,M23T,3.14
3,M23H,2.71
4,M23W,2.81
5,M23D,2.32
6,M23F,3.12
7,M23K,4.14
8,M23R,2.68
9,M23Y,2.7
10,M23Q,2.6
11,K24V,2.04
12,K24S,2.89
13,K24E,3.9
14,K24Q,3.31
15,K24C,3.03
16,K24N,2.99
17,K24W,1.86
18,K24H,2.37
19,K24F,2.57
20,K24M,2.45
21,K24I,1.81
22,K24A,3.25
23,K24Y,2.23
24,K24P,2.67
25,E22R,2.88

row,Variant,protein stability index
1,E22L,2.29
2,E22Y,3.08
3,E22C,2.76
4,E22A,3.08
5,E22H,2.49
6,E22T,3.61
7,E22I,2.83
8,E22K,4.44
9,E22P,4.12
10,E22N,3.54
11,E22G,2.81
12,E22M,2.46
13,E22F,2.21
14,E22S,3.35
15,T16P,4.07
16,T16H,3.5
17,T16G,3.35
18,T16N,3.22
19,T16A,2.46
20,T16D,3.58
21,T16Q,2.9
22,T16L,3.71
23,T16M,2.62
24,T16K,3.87
25,T16V,2.8

row,Variant,protein stability index
1,T16F,2.07
2,T16E,3.18
3,T16S,2.48
4,T16Y,2.49
5,C8S,3.63
6,C8G,3.77
7,C8F,2.46
8,C8M,3.52
9,C8V,3.27
10,C8L,2.21
11,C8N,3.02
12,C8A,3.09
13,C8Q,3.95
14,C8K,1.43
15,C8D,4.3
16,C8I,2.4
17,C8H,2.81
18,C8P,4.28
19,C8E,3.42
20,C8Y,2.34
21,R17S,2.84
22,R17P,3.35
23,R17Y,2.81
24,R17K,2.82
25,R17W,2.33

row,Variant,protein stability index
1,R17I,2.97
2,R17L,2.59
3,R17V,2.65
4,R17A,3.68
5,R17E,4.53
6,R17M,3.08
7,R17D,4.12
8,R17N,2.76
9,R17Q,3.1
10,R17F,2.99
11,E14T,3.41
12,E14F,2.2
13,E14M,2.06
14,E14D,1.66
15,E14Q,3.53
16,E14A,2.37
17,E14Y,2.83
18,E14I,2.6
19,E14K,2.94
20,E14P,2.17
21,E14L,2.27
22,E14R,2.34
23,E14N,3.06
24,E14H,3.05
25,E14C,3.36

row,Variant,protein stability index
1,T10A,3.49
2,T10V,3.38
3,T10S,3.17
4,T10W,2.48
5,T10F,2.77
6,T10H,3.94
7,T10E,3.39
8,T10P,2.44
9,T10C,4.11
10,T10R,2.15
11,T10M,2.11
12,T10D,3.27
13,T10L,2.44
14,T10K,2.9
15,T10Q,3.61
16,T10I,2.68
17,T10Y,1.99
18,T10G,2.92
19,E12R,2.4
20,E12F,1.63
21,E12K,3.29
22,E12V,3.34
23,E12G,1.18
24,E12D,1.73
25,E12T,1.85

row,Variant,protein stability index
1,E12C,3.46
2,E12I,2.38
3,E12H,2.92
4,E12L,1.88
5,E12Y,2.17
6,E12Q,2.43
7,E12S,2.44
8,E12W,2.05
9,E12A,2.15
10,E12M,3.22
11,E12P,3.04
12,L5V,4
13,L5Y,2.27
14,L5R,2.87
15,L5T,3.61
16,L5Q,4.54
17,L18Q,2.96
18,L18E,2.48
19,L18N,3.75
20,L18V,3.63
21,L18R,4.11
22,L18K,3.36
23,L18P,3.79
24,L18A,3.34
25,L18H,4.09

row,Variant,protein stability index
1,L18D,4.07
2,L18M,2.49
3,L18W,2.78
4,L18Y,3.12
5,L18G,1.4
6,L18F,1.85
7,L18S,3.06
8,S21Y,3.14
9,S21A,2.1
10,S21E,4.15
11,S21P,3.5
12,S21K,4.3
13,S21V,2.17
14,S21G,1.68
15,S21L,2.06
16,S21C,2.63
17,S21H,3.01
18,S21M,2.98
19,S21R,1.9
20,S21T,3.1
21,S21F,2.36
22,S21D,3.57
